This note sets out measurements from US20230038638A1, “COMPLEMENT FACTOR I-RELATED COMPOSITIONS AND METHODS” (published 2023).

Numbering of substitutions follows the chain as printed.

For assay [1], the target named is soluble human C3b (human) (UniProt P01024).
Assay [2] shares this target. This is another data set of the same source.
Assay [3] has as its target T1, human C4b (human) (UniProt P0C0L5).
T1 sequence: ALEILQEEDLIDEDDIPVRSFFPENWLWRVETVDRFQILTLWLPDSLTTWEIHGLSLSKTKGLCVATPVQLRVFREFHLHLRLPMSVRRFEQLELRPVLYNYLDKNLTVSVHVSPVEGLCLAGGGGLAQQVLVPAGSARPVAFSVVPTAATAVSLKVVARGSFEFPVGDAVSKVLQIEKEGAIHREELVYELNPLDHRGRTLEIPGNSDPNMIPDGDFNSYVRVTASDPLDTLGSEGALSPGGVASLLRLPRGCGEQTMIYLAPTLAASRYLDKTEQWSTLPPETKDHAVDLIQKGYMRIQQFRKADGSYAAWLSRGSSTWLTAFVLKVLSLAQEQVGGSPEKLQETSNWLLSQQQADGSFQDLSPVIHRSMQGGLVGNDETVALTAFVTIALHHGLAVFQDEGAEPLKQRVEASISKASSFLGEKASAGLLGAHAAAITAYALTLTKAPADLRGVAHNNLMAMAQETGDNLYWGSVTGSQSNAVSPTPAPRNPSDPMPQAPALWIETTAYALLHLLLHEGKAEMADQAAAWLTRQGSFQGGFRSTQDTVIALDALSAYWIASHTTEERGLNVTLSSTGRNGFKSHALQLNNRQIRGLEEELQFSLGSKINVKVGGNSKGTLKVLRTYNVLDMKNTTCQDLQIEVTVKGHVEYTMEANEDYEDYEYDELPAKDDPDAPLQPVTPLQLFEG

The target of assay [4] is soluble human C3b (human) (UniProt P01024). This is another data set of the same source.
For assay [5], the target named is T2, C3b (human, UniProt P01024).
In assay [6] the target is T2, C3b. The source holds these as a separate data set.
Assay [7] addresses T2, C3b. The source holds these as a separate data set.
The target in assay [8] is T1, human C4b (human). This is another data set of the same source.
Assay [9] has as its target soluble human C3b (human) (UniProt P01024). The source holds these as a separate data set.
Assay [10] deals with T3, human C4b (human) (UniProt P0C0L4).
T3 sequence: T1 sequence with T151A, G317D, L364P, S365C, I368L, H369D, S420N, A451V, R454L, A530S

Assay [11] deals with T3, human C4b (human). The source holds these as a separate data set.
The target of assay [12] is soluble human C3b (human) (UniProt P01024). This is another data set of the same source.
Assay [13] has as its target T4, C4b (human, UniProt P0C0L4).
T4 sequence: T1 sequence with T151A, G317D, L364P, S365C, I368L, H369D, S420N, A451V, R454L, A530S

The target of assay [14] is T2, C3b. This is another data set of the same source.
Assay [15] deals with CFI-HSA (human serum albumin fused to the N-terminal end of wild type CFI) (human).

CFI-HSA (human serum albumin fused to the N-terminal end of wild type CFI) (enzyme), sequence (chain): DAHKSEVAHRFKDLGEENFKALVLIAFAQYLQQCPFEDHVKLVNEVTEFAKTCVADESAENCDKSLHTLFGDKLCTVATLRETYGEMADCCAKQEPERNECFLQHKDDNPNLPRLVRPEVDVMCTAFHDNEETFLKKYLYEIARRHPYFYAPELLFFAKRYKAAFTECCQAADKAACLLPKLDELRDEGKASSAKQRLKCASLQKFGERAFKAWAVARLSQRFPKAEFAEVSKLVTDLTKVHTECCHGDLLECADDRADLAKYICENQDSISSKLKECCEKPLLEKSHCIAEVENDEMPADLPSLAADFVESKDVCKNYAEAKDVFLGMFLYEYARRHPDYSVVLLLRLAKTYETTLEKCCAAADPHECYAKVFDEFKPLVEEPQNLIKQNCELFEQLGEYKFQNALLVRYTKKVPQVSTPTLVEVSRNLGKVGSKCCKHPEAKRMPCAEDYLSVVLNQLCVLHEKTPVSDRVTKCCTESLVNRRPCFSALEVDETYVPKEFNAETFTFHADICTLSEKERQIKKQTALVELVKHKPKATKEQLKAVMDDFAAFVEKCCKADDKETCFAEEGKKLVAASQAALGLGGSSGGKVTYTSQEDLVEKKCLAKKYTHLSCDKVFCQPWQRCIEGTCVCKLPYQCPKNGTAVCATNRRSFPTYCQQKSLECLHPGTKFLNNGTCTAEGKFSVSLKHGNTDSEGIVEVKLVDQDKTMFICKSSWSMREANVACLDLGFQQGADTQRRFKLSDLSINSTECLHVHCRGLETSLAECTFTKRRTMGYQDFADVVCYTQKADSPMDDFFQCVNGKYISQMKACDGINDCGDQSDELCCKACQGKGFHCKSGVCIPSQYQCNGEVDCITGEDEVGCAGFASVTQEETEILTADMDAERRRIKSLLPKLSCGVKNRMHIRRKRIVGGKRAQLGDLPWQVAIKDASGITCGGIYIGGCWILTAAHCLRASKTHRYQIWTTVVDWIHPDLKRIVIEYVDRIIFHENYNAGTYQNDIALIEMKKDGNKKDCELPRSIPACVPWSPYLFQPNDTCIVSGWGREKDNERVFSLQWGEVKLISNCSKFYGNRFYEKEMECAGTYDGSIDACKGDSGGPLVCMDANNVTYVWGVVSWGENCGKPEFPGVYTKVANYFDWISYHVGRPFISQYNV
CFI-HSA (human serum albumin fused to the N-terminal end of wild type CFI), sequence (chain): as above
recombinant human furin, sequence (P09958 108-715 limits assumed): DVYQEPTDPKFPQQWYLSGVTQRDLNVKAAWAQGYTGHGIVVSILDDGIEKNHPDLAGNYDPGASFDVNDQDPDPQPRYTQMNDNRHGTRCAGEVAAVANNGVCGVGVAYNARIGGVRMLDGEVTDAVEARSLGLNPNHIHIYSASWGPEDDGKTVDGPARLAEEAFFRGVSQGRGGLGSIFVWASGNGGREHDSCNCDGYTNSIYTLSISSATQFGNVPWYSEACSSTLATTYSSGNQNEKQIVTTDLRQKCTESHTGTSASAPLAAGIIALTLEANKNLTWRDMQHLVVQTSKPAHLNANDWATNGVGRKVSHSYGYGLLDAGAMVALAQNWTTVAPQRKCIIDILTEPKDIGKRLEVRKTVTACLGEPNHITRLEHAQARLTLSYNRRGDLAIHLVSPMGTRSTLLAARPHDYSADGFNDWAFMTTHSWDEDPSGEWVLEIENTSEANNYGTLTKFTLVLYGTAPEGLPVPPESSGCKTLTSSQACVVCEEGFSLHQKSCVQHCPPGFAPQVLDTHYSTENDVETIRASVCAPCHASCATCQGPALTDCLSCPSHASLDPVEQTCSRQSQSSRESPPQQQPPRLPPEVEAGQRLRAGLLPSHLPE

“CFI-HSA (E416A; D425R; E457G; N531G variant) (enzyme)” gave a Fold-decrease EC50 (iC3b) vs. CFI WT in assay [1] of 8.03 fold.

Turning to CFI-HSA (E416A; N531G variant) (enzyme), the Fold-decrease EC50 (iC3b) vs. CFI WT in assay [1] worked out at 3.67 fold.

CFI-HSA (E457G; N531G variant) (enzyme) displayed a Fold-decrease EC50 (iC3b) vs. CFI WT in assay [1] of 3.86 fold.

In assay [1], “CFI-HSA (hCR1; CCP15; CCP16; CCP17 C-terminal fusion) (enzyme)” returned a Fold-decrease EC50 (iC3b) vs. CFI WT of 0.79 fold.

In assay [2], “CFI-HSA (human serum albumin fused to the N-terminal end of wild type CFI)” gave a C3b-enriched AP hemolytic assay IC50 of 0.0264 µM.

The substance “CFI-HSA (human serum albumin fused to the N-terminal end of wild type CFI) (enzyme)” came in with a C4b cleavage EC50 in assay [3] of 0.365 µM. The C3b cleavage EC50 in assay [4] was determined as 0.0255 µM.

“CFI-HSA variant 456-… (SEQ ID NO: 9)-465 --> … (SEQ ID NO: 10) (human trypsin autolysis loop swap) (enzyme)”: the C3b cleavage rate, kmut/kwt in [5] is 0. In addition, the C3b cleavage, % Activity in assay [6] turned out to be 18%.

On to CFI-HSA variant D425A (enzyme), for which the C3b cleavage rate, kmut/kwt in assay [5] came to 1. Also, in assay [7], the C3dg formation in activated human serum (TRIFMA), EC50 WT/EC50Variant came out at 1.7. Also, the C3b cleavage, % Activity in assay [6] was 103%. Besides, the C4b Screen Ref Fold (fold vs CFI-HSA wild type) in assay [8] turned out to be 2.71. Also, the iC3b Screen Ref Fold (fold vs CFI-HSA wild type) in assay [9] is 1.07.

In [5], CFI-HSA variant D425K (enzyme) registered a C3b cleavage rate, kmut/kwt of 1. This substance also had a C3b cleavage, % Activity in assay [6] of 105%. In addition, the C4b Screen Ref Fold (fold of CFI-HSA wild type) in assay [10] was determined as 2.86. Besides, the C4b Screen Ref Fold (fold vs CFI-HSA wild type) in [8] was found to be 0.42. Besides, in [9], the iC3b Screen Ref Fold (fold of CFI-HSA wild type) was 0.11 and the iC3b Screen Ref Fold (fold vs CFI-HSA wild type) came to 1.34.

CFI-HSA variant D425R (enzyme) displayed a C3b cleavage rate, kmut/kwt in assay [5] of 2. Moreover, the C3dg formation in activated human serum (TRIFMA), EC50 WT/EC50Variant in [7] came to 4.2. Moreover, the C3b cleavage, % Activity in assay [6] came to 104%. In addition, the C4b Screen Ref Fold (fold vs CFI-HSA wild type) in [8] was determined as 0.69. For the same substance, the iC3b Screen Ref Fold (fold vs CFI-HSA wild type) in [9] came out at 1.46.

CFI-HSA variant E457G (enzyme) registered a C3b cleavage rate, kmut/kwt in assay [5] of 3. Further, the C4b Screen Ref Fold (fold vs CFI-HSA wild type) in assay [8] came to 5.37. In addition, in assay [9], the iC3b Screen Ref Fold (fold vs CFI-HSA wild type) turned out to be 1.58. This substance also showed a C4c EC50 (nM) in [11] of 138 nM. The same substance returned an iC3b EC50 in [12] of 0.0111 µM.

With “CFI-HSA variant E457G; E461Q; N531G with hCR1; CCP15; CCP16; CCP17 C-terminal fusion (enzyme)”, in assay [13], the C4c No Cofactor EC50 (C4b cleavage, C4c ELISA) turned out to be 0.0776 µM.

For “CFI-HSA variant E457G; N531G; P535G with hCR1; CCP15; CCP16; CCP17 C-terminal fusion (enzyme)”, in assay [13], the C4c No Cofactor EC50 (C4b cleavage, C4c ELISA) amounted to 0.0448 µM.

Consider “CFI-HSA variant E457G; P535G with hCR1; CCP15; CCP16; CCP17 C-terminal fusion (enzyme)”, for which, in assay [13], the C4c No Cofactor EC50 (C4b cleavage, C4c ELISA) was determined as 0.0359 µM.

In assay [5], CFI-HSA variant E461Q (enzyme) registered a C3b cleavage rate, kmut/kwt of 2. In addition, the C4b Screen Ref Fold (fold vs CFI-HSA wild type) in [8] stood at 5.47. For the same substance, in [9], the iC3b Screen Ref Fold (fold vs CFI-HSA wild type) came out at 1.94. This substance also came in with a C4c EC50 (nM) in [11] of 121 nM. Also, in [12], the iC3b EC50 amounted to 0.012 µM.

CFI-HSA variant K326A + R327A (enzyme) yielded a C3b cleavage rate, kmut/kwt in assay [5] of 0. This substance also registered a C3b cleavage, % Activity in assay [6] of 58%.

As for CFI-HSA variant L307G (enzyme), the C3b cleavage rate, kmut/kwt in assay [5] is 1. Moreover, in [6], the C3b cleavage, % Activity came to 91%. For the same substance, the C4b Screen Ref Fold (fold vs CFI-HSA wild type) in assay [8] worked out at 2.85. Further, the iC3b Screen Ref Fold (fold vs CFI-HSA wild type) in assay [9] was found to be 0.79. In assay [11], this substance yielded a C4c EC50 (nM) of 316 nM. In assay [12], this substance registered an iC3b EC50 of 0.0392 µM.

Consider CFI-HSA variant N531A (enzyme), for which the C3b cleavage rate, kmut/kwt in assay [5] was 1. Further, in assay [8], the C4b Screen Ref Fold (fold vs CFI-HSA wild type) was 0.31. The iC3b Screen Ref Fold (fold vs CFI-HSA wild type) in assay [9] was 1.21. The substance also displayed a C4c EC50 (nM) in assay [11] of 278 nM. The iC3b EC50 in [12] was 0.0243 µM.

Take CFI-HSA variant N531G (enzyme): the C3b cleavage rate, kmut/kwt in assay [5] worked out at 1. The C4b Screen Ref Fold (fold vs CFI-HSA wild type) in assay [8] came to 6.26. Moreover, the iC3b Screen Ref Fold (fold vs CFI-HSA wild type) in assay [9] is 2.1. This substance also showed a C4c EC50 (nM) in assay [11] of 58.4 nM. Moreover, the iC3b EC50 in [12] came out at 0.0083 µM.

Substance “CFI-HSA variant N531G with hCR1; CCP15; CCP16; CCP17 C-terminal fusion (enzyme)” gave a C4c No Cofactor EC50 (C4b cleavage, C4c ELISA) in assay [13] of 0.0762 µM.

Turning to “CFI-HSA variant N531G; P535A with hCR1; CCP15; CCP16; CCP17 C-terminal fusion (enzyme)”, the C4c No Cofactor EC50 (C4b cleavage, C4c ELISA) in assay [13] turned out to be 0.0503 µM.

As for CFI-HSA variant P535A (enzyme), the C3b cleavage rate, kmut/kwt in assay [5] was determined as 1. For the same substance, the C4b Screen Ref Fold (fold vs CFI-HSA wild type) in assay [8] turned out to be 1.86. Besides, the iC3b Screen Ref Fold (fold vs CFI-HSA wild type) in [9] stood at 1.01.

On to “CFI-HSA variant P535G with hCR1; CCP15; CCP16; CCP17 C-terminal fusion (enzyme)”, for which the C4c No Cofactor EC50 (C4b cleavage, C4c ELISA) in [13] was determined as 0.161 µM.

CFI-HSA variant R557A (enzyme): in [5], the C3b cleavage rate, kmut/kwt was 0. Further, the C3b cleavage, % Activity in assay [6] worked out at 21%. In assay [8], the C4b Screen Ref Fold (fold relative to CFI-HSA wild type) amounted to 1.72 and the C4b Screen Ref Fold (fold vs CFI-HSA wild type) came out at 1.74. Further, in assay [9], the iC3b Screen Ref Fold (fold relative to CFI-HSA wild type) was -0.01 and the iC3b Screen Ref Fold (fold vs CFI-HSA wild type) is 0.04. Moreover, in assay [11], the C4c EC50 (nM) worked out at 327 nM. Besides, in assay [12], the iC3b EC50 was above 0.5 µM.

Consider CFI-HSA variant Y408L (enzyme), for which the C3b cleavage rate, kmut/kwt in assay [5] stood at 1. Moreover, the C3b cleavage, % Activity in assay [6] worked out at 104%. The C4b Screen Ref Fold (fold vs CFI-HSA wild type) in [8] is 1.46. The iC3b Screen Ref Fold (fold vs CFI-HSA wild type) in [9] is 1.4. Besides, in assay [11], the C4c EC50 (nM) is above 1000 nM. In [12], this substance returned an iC3b EC50 of 0.0213 µM.

On to CFI-HSA variant Y408L + N531G (enzyme), for which, in assay [5], the C3b cleavage rate, kmut/kwt came to 3. This substance returned a C3dg formation in activated human serum (TRIFMA), EC50 WT/EC50Variant in assay [7] of 0.6. In [6], this substance had a C3b cleavage, % Activity of 123%.

For “CFI-HSA variant Y408L; E457G; E461Q; R462K; N531G with hCR1; CCP15; CCP16; CCP17 C-terminal fusion (enzyme)”, the C4c No Cofactor EC50 (C4b cleavage, C4c ELISA) in assay [13] was 0.106 µM.

Substance “CFI-HSA variant Y408L; E457G; N531G with hCR1; CCP15; CCP16; CCP17 C-terminal fusion (enzyme)” registered a C4c No Cofactor EC50 (C4b cleavage, C4c ELISA) in assay [13] of 0.156 µM.

In assay [13], “CFI-HSA variant Y408L; E457G; N531G; P535G with hCR1; CCP15; CCP16; CCP17 C-terminal fusion (enzyme)” had a C4c No Cofactor EC50 (C4b cleavage, C4c ELISA) of 0.0977 µM.

Turning to “CFI-HSA variant Y408L; E457G; R462K; F464Y; N531G with hCR1; CCP15; CCP16; CCP17 C-terminal fusion (enzyme)”, in assay [13], the C4c No Cofactor EC50 (C4b cleavage, C4c ELISA) was determined as 0.104 µM.

Turning to “CFI-HSA variant Y408L; N531G with hCR1; CCP15; CCP16; CCP17 C-terminal fusion (enzyme)”, in assay [13], the C4c No Cofactor EC50 (C4b cleavage, C4c ELISA) was found to be 0.0571 µM.

In [13], “CFI-HSA variant Y408L; N531G; P535G with hCR1; CCP15; CCP16; CCP17 C-terminal fusion (enzyme)” displayed a C4c No Cofactor EC50 (C4b cleavage, C4c ELISA) of 0.0501 µM.

Substance “HSA + CfI + GGSSGG (SEQ ID NO: 6) + CR1(ccp15-17) (enzyme)” yielded a C3c No Cofactor EC50 (C3b cleavage, iC3b ELISA) in assay [14] of 0.0337 µM. The substance further yielded a C4c No Cofactor EC50 (C4b cleavage, C4c ELISA) in assay [13] of 0.0635 µM.

As to “recombinant human furin (from UniProt P09958) (enzyme)”, the activation (cleavage) of CFI-HSA by furin in assay [15] is above 90%.
